Reference: patent publication US20090081195

System: SLK (construct not stated)
Sequence (chain, as listed by the source): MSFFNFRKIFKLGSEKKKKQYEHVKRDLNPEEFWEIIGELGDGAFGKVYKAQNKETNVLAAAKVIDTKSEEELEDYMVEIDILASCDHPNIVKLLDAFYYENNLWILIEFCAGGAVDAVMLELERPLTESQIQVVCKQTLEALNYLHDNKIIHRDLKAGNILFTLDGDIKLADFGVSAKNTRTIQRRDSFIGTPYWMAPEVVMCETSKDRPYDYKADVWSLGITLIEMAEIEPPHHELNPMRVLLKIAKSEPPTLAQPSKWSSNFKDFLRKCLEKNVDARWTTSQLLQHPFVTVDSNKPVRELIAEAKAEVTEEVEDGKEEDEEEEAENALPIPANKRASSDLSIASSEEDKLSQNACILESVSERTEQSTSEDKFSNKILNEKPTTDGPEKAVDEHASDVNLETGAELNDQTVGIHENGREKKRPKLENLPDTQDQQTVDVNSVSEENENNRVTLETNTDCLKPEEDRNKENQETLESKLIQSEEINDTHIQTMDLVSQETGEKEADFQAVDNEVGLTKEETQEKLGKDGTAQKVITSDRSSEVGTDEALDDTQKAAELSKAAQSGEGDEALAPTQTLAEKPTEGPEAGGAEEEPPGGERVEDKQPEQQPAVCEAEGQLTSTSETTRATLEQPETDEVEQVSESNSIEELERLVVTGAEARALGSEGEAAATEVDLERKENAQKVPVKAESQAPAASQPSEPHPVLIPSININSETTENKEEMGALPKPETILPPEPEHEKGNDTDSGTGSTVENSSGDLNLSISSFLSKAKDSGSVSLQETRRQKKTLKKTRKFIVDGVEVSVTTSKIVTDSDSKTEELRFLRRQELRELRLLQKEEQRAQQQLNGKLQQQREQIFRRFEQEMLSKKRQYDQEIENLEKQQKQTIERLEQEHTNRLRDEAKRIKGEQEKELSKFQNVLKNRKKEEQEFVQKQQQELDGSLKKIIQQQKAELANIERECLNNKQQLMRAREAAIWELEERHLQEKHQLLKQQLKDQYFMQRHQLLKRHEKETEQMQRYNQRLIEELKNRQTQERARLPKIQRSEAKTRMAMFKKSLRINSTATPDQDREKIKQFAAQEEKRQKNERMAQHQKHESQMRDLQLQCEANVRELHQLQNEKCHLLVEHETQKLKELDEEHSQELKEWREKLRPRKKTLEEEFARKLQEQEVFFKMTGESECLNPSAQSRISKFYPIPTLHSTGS

nm23 (nucleoside diphosphate kinase; NDPK)
SLK activity in vitro (kinase assay, autophosphorylation): nm23 is not a substrate for SLK but rather inhibits its activity in vitro through direct interaction
